For data set [1], the target named is HIV-1 nucleocapsid protein (NC) (HIV-1 NL4-3) (UniProt P12493). Briefly: ITC. The following applies: ITC: 10 mM Tris-HCl pH 7.0, 140 mM KCl, 10 mM NaCl, 5 mM MgCl2, 5 mM TCEP, 30 °C; NC (120-240 µM) titrated into RNA (0.6-4 µM).
The target in data set [2] is T1, HIV-1 nucleocapsid protein (NC) (HIV-1 NL4-3, UniProt P12493). The data set can be described thus: ITC; exothermic only, n=1.2±0.3; ITC: 10 mM Tris-HCl pH 7.0, 140 mM KCl, 10 mM NaCl, 5 mM MgCl2, 5 mM TCEP, 30 °C; NC (120-240 µM) titrated into RNA (0.6-4 µM). Conditions: protein: recombinant; tags: none stated; hairpin, blunt.
Data set [3] concerns the target T1, HIV-1 nucleocapsid protein (NC). The data set can be described thus: ITC; exothermic sites, n=2.8±0.3; ITC: 10 mM Tris-HCl pH 7.0, 140 mM KCl, 10 mM NaCl, 5 mM MgCl2, 5 mM TCEP, 30 °C; NC (120-240 µM) titrated into RNA (0.6-4 µM). The following applies: protein: recombinant; tags: none stated; hairpin, unpaired 5'-GA and AG-3' ends.
The target is the same in data set [4]. The data set can be described thus: ITC; endothermic sites, n=2.3±0.2; ITC: 10 mM Tris-HCl pH 7.0, 140 mM KCl, 10 mM NaCl, 5 mM MgCl2, 5 mM TCEP, 30 °C; NC (120-240 µM) titrated into RNA (0.6-4 µM). The following applies: protein: recombinant; tags: none stated; hairpin, unpaired 5'-GA and AG-3' ends.
The target is the same in data set [5]. Briefly: ITC; exothermic sites, n=6.6±0.2 per dimer; ITC: 10 mM Tris-HCl pH 7.0, 140 mM KCl, 10 mM NaCl, 5 mM MgCl2, 5 mM TCEP, 30 °C; NC (120-240 µM) titrated into RNA (0.6-4 µM). The following applies: protein: recombinant; tags: none stated; duplex dimer of 2 strands.
For data set [6] the target is unchanged. The data set can be described thus: ITC; exothermic only, n=1.8±0.1; ITC: 10 mM Tris-HCl pH 7.0, 140 mM KCl, 10 mM NaCl, 5 mM MgCl2, 5 mM TCEP, 30 °C; NC (120-240 µM) titrated into RNA (0.6-4 µM). Conditions: protein: recombinant; tags: none stated; hairpin with single-stranded 3' GGAG region.
Data set [7] has the same target. Briefly: ITC; exothermic only, n=1.2±0.1; ITC: 10 mM Tris-HCl pH 7.0, 140 mM KCl, 10 mM NaCl, 5 mM MgCl2, 5 mM TCEP, 30 °C; NC (120-240 µM) titrated into RNA (0.6-4 µM). Conditions: protein: recombinant; tags: none stated; hairpin, blunt.

For 5'-LΔPBS, in data set [1], the dissociation constant (Kd) stood at 0.76 µM.

For the molecule 5'-L (5'-L344), the equilibrium dissociation constant (Kd) in data set [1] worked out at 0.88 µM.

For TAR-PolyA, in data set [1], the Kd came out at 1.32 µM.

In the case of GGUUUUGACUAGCGGAGGCUAGAAGGAGCC (structured_RNA) [ΨHP-stable], the Kd in data set [2] stood at 0.3 ± 0.15 µM.

For GAUUUUGACUAGCGGAGGCUAGAAGGAGAG (structured_RNA) [ΨHP], the Kd in data set [3] is 1.54 ± 0.24 µM; in data set [4] it was 0.026 ± 0.021 µM.

For the molecule GGCAGGACUCGGCUUGCUGAAGCGCGCACGGCAAGAGGCGAGGGGCC (structured_RNA) [DIS], in data set [5], the Kd was 0.34 ± 0.03 µM.

For GACUAGCGGAGGCUAGAAGGAG (structured_RNA) [Ψ-fragment], in data set [6], the Kd stood at 0.45 ± 0.03 µM.

As to GGACUAGCGGAGGCUAGUCC (structured_RNA) [Ψ-apical loop], the dissociation constant (Kd) in data set [7] was found to be 0.32 ± 0.03 µM.
